Molecular target: anti-hCG monoclonal antibody from Organon Teknika, Boxtel, the Netherlands
Assay: competition: hCG displaces FpepT from anti-hCG Mab, fluorescence at 590 nm, fit to exchange model (K1)

Kd: 0.49 nM
Substance: human chorionic gonadotrophin (hCG) (from UniProt P01215 25-116; P0DN86 21-165) (ligand)
